Substitutions are numbered along the chain they refer to. In names and notes the source's numbering stands.

Sequences and labels used below:
T1: Human LRRC15 Protein, His Tag (Acro Biosystems) (human, UniProt Q8TF66 22-538, limits assumed)
T1 construct: Bought protein with His tag
T1 sequence (looked up): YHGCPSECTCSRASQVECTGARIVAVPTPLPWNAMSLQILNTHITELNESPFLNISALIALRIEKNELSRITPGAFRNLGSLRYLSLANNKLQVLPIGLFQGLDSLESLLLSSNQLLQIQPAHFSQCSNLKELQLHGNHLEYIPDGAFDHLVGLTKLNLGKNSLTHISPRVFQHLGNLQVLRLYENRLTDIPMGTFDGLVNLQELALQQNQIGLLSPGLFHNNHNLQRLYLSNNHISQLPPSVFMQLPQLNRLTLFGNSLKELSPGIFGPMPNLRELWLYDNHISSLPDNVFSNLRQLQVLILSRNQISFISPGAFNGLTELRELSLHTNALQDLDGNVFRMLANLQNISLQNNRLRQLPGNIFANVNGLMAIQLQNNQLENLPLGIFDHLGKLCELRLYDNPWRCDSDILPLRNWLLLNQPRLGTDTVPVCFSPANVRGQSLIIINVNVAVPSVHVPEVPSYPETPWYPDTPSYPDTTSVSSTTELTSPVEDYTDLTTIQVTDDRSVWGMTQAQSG

T2: Human LRRC15 Protein, His Tag (Acro Biosystems) (human, UniProt Q8TF66 22-538, limits assumed)
T2 construct: not shown: His tag
T2 sequence (looked up): T1 sequence (looked up)

B1: MYT8387 (antibody, V domains shown)
VH: EVQLVESGGGLVQPGGSLRLSCTASGLDFRRTNHICWVRQAPGKGLEWVGCIYIADVVHYYASWAKGRFTFSRDTSKNTVYLQMNSLRAEDTAVYYCARGADGGFVYGMDLWGQGTLVTVSS
VL: EIVMTQSPSTLSASVGDRVIITCQASQSIGNYLSWYQQKPGKAPKRLIYSASTLPSGVPSRFSGSGSGAEFTLTISSLQPDDFATYYCQNNYWLAGYGHPFGQGTKLTVL
notes: hu15G7 VH Y34H; human Fc
B2: MYT8397 (antibody, V domains shown)
VH: B1 VH with H34Y, Y53H, F105H
VL: B1 VL
notes: hu15G7 VH Y53H, F105H; human Fc
B3: MYT8406 (antibody, V domains shown)
VH: B1 VH with G104H, V106H
VL: B1 VL
notes: hu15G7 VH Y34H, G104H, V106H; human Fc
B4: MYT8403 (antibody, V domains shown)
VH: B1 VH with Y53H, F105H
VL: B1 VL
notes: hu15G7 VH Y34H, Y53H, F105H; human Fc
B5: MYT8392 (antibody, V domains shown)
VH: B1 VH with Y53H
VL: B1 VL
notes: hu15G7 VH Y34H, Y53H; human Fc
B6: MYT8388 (antibody, V domains shown)
VH: B1 VH with H34Y, Y53H
VL: B1 VL
notes: hu15G7 VH Y53H; human Fc
B7: MYT8410 (antibody, V domains shown)
VH: B1 VH with H34Y, Y53H, F105H, V106H
VL: B1 VL
notes: hu15G7 VH Y53H, F105H, V106H; human Fc
B8: MYT8399 (antibody, V domains shown)
VH: B1 VH with H34Y, G104H, F105H
VL: B1 VL
notes: hu15G7 VH G104H, F105H; human Fc
B9: MYT8408 (antibody, V domains shown)
VH: B1 VH with H34Y, Y53H, G104H, F105H
VL: B1 VL
notes: hu15G7 VH Y53H, G104H, F105H; human Fc
B10: MYT8398 (antibody, V domains shown)
VH: B1 VH with H34Y, Y53H, V106H
VL: B1 VL
notes: hu15G7 VH Y53H, V106H; human Fc
B11: MYT8390 (antibody, V domains shown)
VH: B1 VH with H34Y, F105H
VL: B1 VL
notes: hu15G7 VH F105H; human Fc
B12: MYT8407 (antibody, V domains shown)
VH: B1 VH with F105H, V106H
VL: B1 VL
notes: hu15G7 VH Y34H, F105H, V106H; human Fc
B13: MYT8402 (antibody, V domains shown)
VH: B1 VH with Y53H, G104H
VL: B1 VL
notes: hu15G7 VH Y34H, Y53H, G104H; human Fc
B14: MYT8394 (antibody, V domains shown)
VH: B1 VH with F105H
VL: B1 VL
notes: hu15G7 VH Y34H, F105H; human Fc
B15: MYT8411 (antibody, V domains shown)
VH: B1 VH with H34Y, G104H, F105H, V106H
VL: B1 VL
notes: hu15G7 VH G104H, F105H, V106H; human Fc
B16: MYT8409 (antibody, V domains shown)
VH: B1 VH with H34Y, Y53H, G104H, V106H
VL: B1 VL
notes: hu15G7 VH Y53H, G104H, V106H; human Fc
B17: MYT8400 (antibody, V domains shown)
VH: B1 VH with H34Y, G104H, V106H
VL: B1 VL
notes: hu15G7 VH G104H, V106H; human Fc
B18: MYT8401 (antibody, V domains shown)
VH: B1 VH with H34Y, F105H, V106H
VL: B1 VL
notes: hu15G7 VH F105H, V106H; human Fc
B19: MYT8395 (antibody, V domains shown)
VH: B1 VH with V106H
VL: B1 VL
notes: hu15G7 VH Y34H, V106H; human Fc
B20: MYT8389 (antibody, V domains shown)
VH: B1 VH with H34Y, G104H
VL: B1 VL
notes: hu15G7 VH G104H; human Fc
B21: MYT8405 (antibody, V domains shown)
VH: B1 VH with G104H, F105H
VL: B1 VL
notes: hu15G7 VH Y34H, G104H, F105H; human Fc
B22: MYT9712 (antibody, V domains shown)
VH: EVQLVESGGGLVQPGGSLRLSCTASGFSFSSSHWICWVRQAPGKGLEWVGCIYAGSIGSTYYASWAKERFTISRDTSKNTVYLQMNSLRAEDTAVYYCARAPNDIYNYYFNLWGQGTLVTVSS
VL: EIVMTQSPSTLSASVGDRVIITCQASENIYNYLAWYQQKPGKAPKLLIYYASTLASGVPSRFSGSGSGAEFTLTISSLQPDDFATYYCQSGYVSKSSTFGQGTKLTVL
notes: also called hu29F1 VH G68E
B23: MYT9714 (antibody, V domains shown)
VH: B22 VH with E68G, R100E
VL: B22 VL
notes: also called hu29F1 VH R100E
B24: MYT9713 (antibody, V domains shown)
VH: B22 VH with E68G, A99E
VL: B22 VL
notes: also called hu29F1 VH A99E

One test concerns the target T1, Human LRRC15 Protein, His Tag (Acro …). Briefly: BLI; dissociation pH 7.4 black, pH 5.4 grey [D00009 FIG. 1G].
Regarding B1, the binding result is “binds”. For B2, the binding result is “no binding (tested: 50 nM LRRC15)”. With B3, the binding result is reported as “no binding (tested: 50 nM LRRC15)”. Take B4: the binding result was “no binding (tested: 50 nM LRRC15)”. For the molecule B5, the binding result is “no binding (tested: 50 nM LRRC15)”. Turning to B6, the binding result is given as “binds”. For the molecule B7, the binding result is “no binding (tested: 50 nM LRRC15)”.

For the molecule B8, the binding result is “binds”. In the case of B9, the binding result is on record as “no binding (tested: 50 nM LRRC15)”.

Turning to B10, the binding result is “no binding (tested: 50 nM LRRC15)”. Regarding B11, the binding result is “binds”. Same read-out and setting: for B12 the value was “no binding (tested: 50 nM LRRC15)”; for B13, “no binding (tested: 50 nM LRRC15)”; for B14, “no binding (tested: 50 nM LRRC15)”. Take B15: the binding result is “binds”. Turning to B16, the binding result is recorded as “no binding (tested: 50 nM LRRC15)”. With B17, the binding result is recorded as “binds”.

Regarding B18, the binding result is reported as “binds”. In the case of B19, the binding result was “no binding (tested: 50 nM LRRC15)”.

Turning to B20, the binding result is “binds”. Take B21: the binding result is given as “binds”.

A further test concerns the target T2, Human LRRC15 Protein, His Tag (Acro …). Briefly: BLI; dissociation pH 7.4 black, pH 5.4 grey [1/2); D00025 FIG. 6B (1/2]. Here is the method: Desirable mutations were transferred to a humanized framework (humanized, MYT 8387-8411). After allowing for four days of protein expression, cell culture supernatants were collected, quantified by SDS-PAGE analysis, and the pH dependence of the variant was evaluated using biolayer interferometry (BLI) on an Octet RED 96e instrument. Briefly, cell culture supernatants were diluted based on qualitative expression level of the variant determined by visual examination of SDS-PAGE gels, 5 μL of cell culture supernatant was diluted into 195 μL of 1×PBST, pH 7.4 for high expressors, 25 μL of cell culture supernatant was diluted into 175 μL of 1×PBST, pH 7.4 for medium expressors and 100 μL of cell culture supernatant was diluted into 100 μL of 1×PBST, pH 7.4 for low expressors for loading onto the sensor tips. The resulting diluted supernatants were then captured on an anti-human Fc sensor (Forte Bio). A baseline was established using 1×PBST (50 mM Potassium Phosphate Buffer+150 mM NaCl+0.05% Tween 20) pH 7.4, and the […] was associated with 50 nM of LRRC15 (Human LRRC15 Protein, His Tag, Acro Biosystems) in 1×PBST pH 7.4 for 120 sec to generate an association curve. In the dissociation phase, the antibody-antigen complex on the sensor was exposed to 1×PBST pH 7.4 or pH 5.4, for 300 sec. Association and dissociation phase curves were examined for the starting ABPC antibody (with no substitutions) and each corresponding antibody variant at pH 5.4 and pH 7.4 to inform on two criteria: a) enhanced dissociation (i.e., higher koff values) at pH 5.4 due to histidine substitution compared to the starting ABPC, (with no substitutions), and b) reduced dissociation at pH 7.4 (i.e., lower koff values) compared to pH 5.4 in the antibody variant itself and with the starting ABPC (with no substitutions).
The methods of Examples 9-10 were applied to RabMAb clone 29F1 (rabbit VH SEQ ID NO: 572 and VL SEQ ID NO: 578; and humanized VH SEQ ID NO: 576 and VL SEQ ID NO: 582).
With B22, the binding result is “binds”. For B23, the binding result is reported as “binds”. Still for that read-out and setting: as for B24, the entry is “binds”.

The record behind these values is US20250352661A1 (MYTHIC THERAPEUTICS, published 2025).
